From US20210221849A1 (MIRABIOLOGICS, published 2021)

Assays:
[1] = molecular target: T1, Met-PA (extracellular region of a human Met receptor with a PA tag at the C terminal) (human, UniProt P08581 25-932); assay: sandwich ELISA type test: Met-PA on plate, Fab supernatant, detection with Nrp1ec-AP, A405
T1 construct: extracellular domain; Soluble receptor fragment expressed in Expi293F cells; also called second target antigen; not shown: PA tag

[2] = molecular target: T2, plexin B1-PA (extracellular region of human plexin B1 with a PA tag at the C terminal) (human, UniProt O43157 20-1490); assay: sandwich ELISA type test: plexin B1-PA on plate, Fab supernatant, detection with Nrp1ec-AP, A405
T2 construct: extracellular domain; Soluble receptor fragment expressed in Expi293F cells; Culture supernatant in the pulldown tests, purified for the sandwich tests; also called hPlexB1; plexin B1-BA; not shown: PA tag (Wako Pure Chemical Industries)
T2 sequence (looked up): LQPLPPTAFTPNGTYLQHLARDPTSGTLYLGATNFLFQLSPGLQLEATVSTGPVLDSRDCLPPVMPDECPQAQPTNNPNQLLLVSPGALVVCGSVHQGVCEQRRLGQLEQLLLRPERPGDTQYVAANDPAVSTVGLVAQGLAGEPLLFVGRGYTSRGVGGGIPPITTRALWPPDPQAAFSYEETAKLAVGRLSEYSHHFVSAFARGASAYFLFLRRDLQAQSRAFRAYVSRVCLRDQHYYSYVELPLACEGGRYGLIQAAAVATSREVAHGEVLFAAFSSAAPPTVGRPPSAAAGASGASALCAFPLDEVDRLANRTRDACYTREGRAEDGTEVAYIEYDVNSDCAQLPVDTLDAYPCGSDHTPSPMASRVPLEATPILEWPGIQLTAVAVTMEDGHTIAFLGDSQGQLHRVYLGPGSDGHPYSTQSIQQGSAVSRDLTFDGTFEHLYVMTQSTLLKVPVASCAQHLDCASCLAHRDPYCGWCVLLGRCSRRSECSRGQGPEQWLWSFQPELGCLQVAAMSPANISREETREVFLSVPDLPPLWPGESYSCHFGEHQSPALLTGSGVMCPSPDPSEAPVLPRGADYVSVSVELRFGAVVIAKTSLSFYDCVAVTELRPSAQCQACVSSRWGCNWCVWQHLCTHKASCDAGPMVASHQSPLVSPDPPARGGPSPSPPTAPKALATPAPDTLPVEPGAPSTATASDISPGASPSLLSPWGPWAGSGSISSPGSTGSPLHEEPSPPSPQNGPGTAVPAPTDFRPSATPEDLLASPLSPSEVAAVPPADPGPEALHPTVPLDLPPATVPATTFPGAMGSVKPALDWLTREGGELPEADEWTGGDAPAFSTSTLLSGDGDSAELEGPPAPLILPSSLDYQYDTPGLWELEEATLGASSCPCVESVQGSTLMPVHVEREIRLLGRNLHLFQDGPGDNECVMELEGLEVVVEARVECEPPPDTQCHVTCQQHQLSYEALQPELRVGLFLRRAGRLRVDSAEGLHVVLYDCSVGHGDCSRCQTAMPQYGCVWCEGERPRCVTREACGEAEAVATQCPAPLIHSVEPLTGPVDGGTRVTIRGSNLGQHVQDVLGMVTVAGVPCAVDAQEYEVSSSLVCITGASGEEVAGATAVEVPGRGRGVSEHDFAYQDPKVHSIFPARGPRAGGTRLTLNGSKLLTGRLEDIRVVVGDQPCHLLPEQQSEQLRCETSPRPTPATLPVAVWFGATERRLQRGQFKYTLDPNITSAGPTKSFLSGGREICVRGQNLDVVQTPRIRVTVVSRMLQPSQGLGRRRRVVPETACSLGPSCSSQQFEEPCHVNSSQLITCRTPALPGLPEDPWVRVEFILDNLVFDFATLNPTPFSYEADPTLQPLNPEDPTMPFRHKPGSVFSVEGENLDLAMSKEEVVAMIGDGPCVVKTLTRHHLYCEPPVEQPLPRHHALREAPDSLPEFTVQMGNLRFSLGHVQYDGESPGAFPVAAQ

T1 sequence (P08581 25-932): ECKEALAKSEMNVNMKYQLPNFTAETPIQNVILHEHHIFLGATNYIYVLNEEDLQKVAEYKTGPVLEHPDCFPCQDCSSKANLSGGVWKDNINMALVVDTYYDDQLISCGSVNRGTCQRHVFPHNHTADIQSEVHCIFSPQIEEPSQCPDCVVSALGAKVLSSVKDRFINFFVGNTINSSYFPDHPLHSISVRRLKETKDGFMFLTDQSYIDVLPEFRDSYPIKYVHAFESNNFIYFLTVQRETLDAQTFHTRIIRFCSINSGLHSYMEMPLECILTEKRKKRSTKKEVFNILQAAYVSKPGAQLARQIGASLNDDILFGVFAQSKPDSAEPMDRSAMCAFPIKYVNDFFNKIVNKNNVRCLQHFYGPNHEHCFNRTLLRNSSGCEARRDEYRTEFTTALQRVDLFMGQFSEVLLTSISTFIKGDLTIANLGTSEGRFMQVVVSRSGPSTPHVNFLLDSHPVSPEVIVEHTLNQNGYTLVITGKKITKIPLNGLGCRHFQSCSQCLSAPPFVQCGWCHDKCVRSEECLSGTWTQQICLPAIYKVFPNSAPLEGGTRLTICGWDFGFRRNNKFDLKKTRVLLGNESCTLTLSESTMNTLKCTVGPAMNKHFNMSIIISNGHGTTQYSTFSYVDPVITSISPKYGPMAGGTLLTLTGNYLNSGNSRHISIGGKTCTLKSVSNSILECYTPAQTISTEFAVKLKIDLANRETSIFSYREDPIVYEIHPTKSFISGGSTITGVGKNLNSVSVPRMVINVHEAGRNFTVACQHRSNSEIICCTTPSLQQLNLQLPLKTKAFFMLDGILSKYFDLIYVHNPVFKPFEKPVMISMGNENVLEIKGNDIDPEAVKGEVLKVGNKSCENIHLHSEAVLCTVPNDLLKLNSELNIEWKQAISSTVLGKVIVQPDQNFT

B1: N1_Fab having no peptide inserted therein (Fab, V domains shown)
VH: EVQLVESGGGLVQPGGSLRLSCAASGFSFSSEPISWVRQAPGKGLEWVSSITGKNGYTYYADSVKGRFTISADTSKNTAYLQMNSLRAEDTAVYYCARWGKKVYGMDVWGQGTLVTVSS
VL: DIQMTQSPSSLSASVGDRVTITCRASQSISSYLAWYQQKPGKAPKLLIYGASSRASGVPSRFSGSGSGTDFTLTISSLQPEDFATYYCQQYMSVPITFGQGTKVEIKR
notes: Unfused control Fab, used as culture supernatant; also called Fab of human IgG1 monoclonal antibody N1 (clone name YW64.3) against neuropilin 1
[1]
  binding result: no binding
[2]
  binding result: no binding
